Data: patent US5130300A, “Method for enhancing growth of mammary parenchyma” (Monsanto Company, priority 1987, dated 1992)

What was measured:
[1] = system: Quarter-Udders in Pregnant Beef Cattle; test: Intramammary infusion of ovine prolactin, quarter-udder weights and DNA (Comparative Examples); assay type: in vivo, cross-bred beef cows
Experimental: 16 pregnant, non-lactating, cross-bred beef cows in their last 30-105 days of gestation were divided into 2 groups and tested for the effects of intramammary infusion using the procedures of Examples 25-28 except that instead of a prostaglandin, each treatment infusion contained either 2 mg (Group 1) or 10 mg (Group 2) of ovine prolactin obtained from Sigma Chemical Co., St. Louis, Mo. (Lot No. 26F-0076) in 10 ml of an emulsion of 0.9% saline containing 0.5% Tween-20 in sterile sesame oil containing 5% Arlacel A (3:2 oil: saline). Results are in Tables 22-23.

[2] = system: Quarter-Udders in Pregnant Holstein Heifers; test: Intramammary infusion, milk production per udder side in first 30 days after parturition (Examples 23-24, 42-43); assay type: in vivo
Experimental: 18 pregnant Holstein heifers within their last 40-60 days of expected calving were housed in a free-stall facility, fed a ration of alfalfa hay and pelleted concentrate and administered 10 ml of an excipient (sterile sesame oil) into each quarter-udder by intramammary infusion through the steak canal every third day for the number of treatments shown below. The heifers in Groups 1 and 3 were treated no later than their fifth day before parturition; treatments of those in Groups 2 and 4 were continued into their last five days. Treatments containing a mitogenic substance were administered to both quarter-udders on one side of each animal. Excipient only was administered to both quarter-udders on the opposite side of that animal. All infusions were carried out with a Jorgensen laboratories infusion canula of the kind used in Examples 1-2. Each teat was sprayed with 70% ethanol and wiped dry prior to treatment, and dipped with an iodine solution following treatment. These animals were milked normally each a.m. and p.m. for the first 30 days after parturition, with milk production recorded separately for each quarter-udder. […] Shown in Table 21 are the milk production results obtained with the heifers of Group 3 in Examples 23-24. On average, milk production by the half-udders that had been treated in Group 4 of Examples 23-24 slightly exceeded (2%, p<0.4) that of their control half-udders.

[3] = system: Quarter-Udders in Pregnant Beef Cows; test: Intramammary infusion of BST, quarter-udder weights and DNA (Examples 40-41); assay type: in vivo, cross-bred beef cows; details: for DNA, % Increase, (A-B)/B / DNA, Mean Increase (A-B) / Dry Fat-Free Weight, % Increase, (A-B)/B / Dry Fat-Free Weight, Mean Increase (A-B) / Dry Weight, % Increase, (A-B)/B / Dry Weight, Mean Increase (A-B) / Wet Weight, % Increase, (A-B)/B / Wet Weight, Mean Increase (A-B): B = excipient only
Experimental: 24 pregnant, non-lactating, cross-bred beef cows in their last 40-80 days of gestation were divided into 2 groups and tested for the effects of intramammary infusion using the procedures of Examples 3-6 except that (A) the volume of excipient in each infusion was 5 ml and (B) each treatment infusion contained a 1% zinc salt of an N-methionyl bovine somatotropin (BST) (Group 1-100 mg; Group 2-40 mg) prepared by expression of recombinant DNA and purified essentially as described in Example 1A of U.S. Patent Appln. No. 787,873 filed Oct. 16, 1985 based on European Patent Appln. No. 177,478 published Apr. 9, 1986, both incorporated here by reference. Results are in Tables 19-20.

[4] = Group 1: total of 10 milligrams (2 mg per infusion)
[5] = Group 1: total of 10 milligrams, B = control mean
[6] = Group 2: total dose of 50 milligrams (10 mg per infusion)
[7] = Group 2: total dose of 50 milligrams, B = control mean
[8] = Group 1: total of 500 milligrams BST
[9] = Group 1: total of 500 milligrams BST (100 mg per infusion)
[10] = Group 2: total of 200 milligrams BST
[11] = Group 2: total of 200 milligrams BST (40 mg per infusion)

B1: Ovine Prolactin: ovine prolactin from Sigma Chemical Co. (Lot No. 26F-0076), comparative example (protein, UniProt P01240 31-229, looked up)
Prolactin: TPVCPNGPGNCQVSLRDLFDRAVMVSHYIHNLSSEMFNEFDKRYAQGKGFITMALNSCHTSSLPTPEDKEQAQQTHHEVLMSLILGLLRSWNDPLYHLVTEVRGMKGVPDAILSRAIEIEEENKRLLEGMEMIFGQVIPGAKETEPYPVWSGLPSLQTKDEDARHSAFYNLLHCLRRDSSKIDTYLKLLNCRIIYNNNC
- DNA, Treatment Mean [1, 4]: 2526 mg
- Dry Fat-Free Weight, Treatment Mean [1, 4]: 137.8 g
- Dry Weight, Treatment Mean [1, 4]: 262.7 g
- Wet Weight, Treatment Mean [1, 4]: 895.3 g
- Dry Fat-Free Weight, % Increase, (A-B)/B [1, 5]: .88%
- Dry Fat-Free Weight, Mean Increase (A-B) [1, 5]: 1.2 g
- Dry Weight, % Increase, (A-B)/B [1, 5]: 1.0%
- Dry Weight, Mean Increase (A-B) [1, 5]: 4.8 g
- Wet Weight, % Increase, (A-B)/B [1, 5]: .6%
- Wet Weight, Mean Increase (A-B) [1, 5]: 5.4 g
- DNA, Treatment Mean [1, 6]: 3672 mg
- Dry Fat-Free Weight, Treatment Mean [1, 6]: 189.2 g
- Dry Weight, Treatment Mean [1, 6]: 343.4 g
- Wet Weight, Treatment Mean [1, 6]: 1487.1 g
- DNA, % Increase, (A-B)/B [1, 7]: 10.5%
- DNA, Mean Increase (A-B) [1, 7]: 350 mg
- Dry Fat-Free Weight, % Increase, (A-B)/B [1, 7]: 2.5%
- Dry Fat-Free Weight, Mean Increase (A-B) [1, 7]: 4.7 g
- Wet Weight, % Increase, (A-B)/B [1, 7]: 13.6%
- Wet Weight, Mean Increase (A-B) [1, 7]: 178.6 g

B2: BST: N-methionyl bovine somatotropin prepared by expression of recombinant DNA (protein, UniProt P01246 27-217, looked up)
Somatotropin: AFPAMSLSGLFANAVLRAQHLHQLAADTFKEFERTYIPEGQRYSIQNTQVAFCFSETIPAPTGKNEAQQKSDLELLRISLLLIQSWLGPLQFLSRVFTNSLVFGTSDRVYEKLKDLEEGILALMRELEDGTPRAGQILKQTYDKFDTNMRSDDALLKNYGLLSCFRKDLHKTETYLRVMKCRRFGEASCAF
modifications: N-terminal Met
notes: N-methionyl bovine somatotropin prepared by expression of recombinant DNA
- Average Milk Production, Treated Side (A) ([2]; BST 50 mg per infusion every third day, no later than fifth day before parturition (Group 3 per text), first 30 days after parturition): 10.9 kg/day
- Average Milk Production, % Increase, (A-B)/B ([2]; BST 50 mg per infusion, no later than fifth day before parturition (Group 3 per text), B = control side, excipient only): 11%
- Milk production of treated half-udders in excess of control half-udders ([2]; Group 4: BST 50 mg per infusion, treatments continued into last five days before parturition): 2%
- DNA, Avg. % Increase/Animal [3, 8]: 10.5%
- Dry Fat-Free Weight, Avg. % Increase/Animal [3, 8]: 7.9%
- Dry Weight, Avg. % Increase/Animal [3, 8]: 10.7%
- Wet Weight, Avg. % Increase/Animal [3, 8]: 9.8%
- DNA, Treatment Mean [3, 9]: 2185 mg
- Dry Fat-Free Weight, Treatment Mean [3, 9]: 146.7 g
- Dry Weight, Treatment Mean [3, 9]: 207.6 g
- Wet Weight, Treatment Mean [3, 9]: 790.1 g
- DNA, % Increase, (A-B)/B [3, 8]: 6.4%
- DNA, Mean Increase (A-B) [3, 8]: 131 mg
- Dry Fat-Free Weight, % Increase, (A-B)/B [3, 8]: 3.6%
- Dry Fat-Free Weight, Mean Increase (A-B) [3, 8]: 5.2 g
- Dry Weight, % Increase, (A-B)/B [3, 8]: 8.9%
- Dry Weight, Mean Increase (A-B) [3, 8]: 17.0 g
- Wet Weight, % Increase, (A-B)/B [3, 8]: 7.3%
- Wet Weight, Mean Increase (A-B) [3, 8]: 53.5 g
- DNA, Avg. % Increase/Animal [3, 10]: 15.8%
- Dry Fat-Free Weight, Avg. % Increase/Animal [3, 10]: 7.8%
- Dry Weight, Avg. % Increase/Animal [3, 10]: 10.7%
- Wet Weight, Avg. % Increase/Animal [3, 10]: 13.4%
- DNA, Treatment Mean [3, 11]: 1371 mg
- Dry Fat-Free Weight, Treatment Mean [3, 11]: 49.5 g
- Dry Weight, Treatment Mean [3, 11]: 96.4 g
- Wet Weight, Treatment Mean [3, 11]: 396.9 g
- DNA, % Increase, (A-B)/B [3, 10]: 5.5%
- DNA, Mean Increase (A-B) [3, 10]: 72 mg
- Dry Fat-Free Weight, % Increase, (A-B)/B [3, 10]: 10.5%
- Dry Fat-Free Weight, Mean Increase (A-B) [3, 10]: 4.7 g
- Dry Weight, % Increase, (A-B)/B [3, 10]: 13.3%
- Dry Weight, Mean Increase (A-B) [3, 10]: 11.3 g
- Wet Weight, % Increase, (A-B)/B [3, 10]: 14.9%
- Wet Weight, Mean Increase (A-B) [3, 10]: 51.5 g
